Experimental data published in the supplement of paper PMC12338614.
± gives the uncertainty stated by the source.

B1: library; numbered along this chain (parent)
chain: MEVVDPQQLGMFTEGELMSVGMDTFIHRIDSTEVIYQPRRKRAKLIGKYLMGDLLGEGSYGKVKEVLDSETLCRRAVKILKKKKLRRIPNGEANVKKEIQLLRRLRHKNVIQLVDVLYNEEKQKMYMVMEYCVCGMQEMLDSVPEKRFPVCQAHGYFCQLIDGLEYLHSQGIVHKDIKPGNLLLTTGGTLKISDLGVAEALHPFAADDTCRTSQGSPAFQPPEIANGLDTFSGFKVDIWSAGVTLYNITTGLYPFEGDNIYKLFENIGKGSYAIPGDCGPPLSDLLKGMLEYEPAKRFSIRQIRQHSWFRKKHPPAEAPVPIPPSPDTKDRWRSMTVVPYLEDLHGADEDEDLFDIEDDIIYTQDFTVPGQVPEEEASHNGQRRGLPKAVCMNGTEAAQLSTKSRAEGRAPNPARKACSASSKIRRLSACKQQ

Variants of: B1
Assay: STK11 functional score (HeLa growth suppression), rescaled enrichment; synonymous median = 1, nonsense median = 0 (normalised score)
Settings: with HeLa; variant type: missense
Procedure, shortened: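 The functional score takes the post/pre-selection log ratio, corrects it to wild type, rescales it to synonymous and nonsense medians, and merges it over codons and replicate transfections, with error from bootstrapping. Counts came from tiled gDNA amplicons sequenced on NextSeq (~2 million reads per tile). The libraries were POPCode codon-randomised, codon-optimised STK11 integrated by Bxb1 at an AAVS1 landing pad in HeLa, three regions with three transfections each.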

Row | Variant | STK11 functional score
1 | C430V | 1.03 ± 0.62
2 | L167G | 0.121 ± 0.079
3 | L167W | -0.183 ± 0.049
4 | V77D | 0.0184 ± 0.081
5 | P222T | 0.499 ± 0.25
6 | K403Q | 1.61 ± 0.37
7 | K403L | 1.25 ± 0.46
8 | P38K | 1.6 ± 0.22
9 | K122A | 1.18 ± 0.53
10 | E291N | 0.978 ± 0.52
11 | F157G | -0.101 ± 0.099
12 | K64S | 1.53 ± 0.19
13 | A200P | 1.35 ± 0.56
14 | N119P | 1.37 ± 0.29
15 | N119A | 1.44 ± 0.23
16 | N119T | 1.42 ± 0.32
17 | L228M | 0.601 ± 0.32
18 | L67H | 0.361 ± 0.41
19 | S271I | 1.15 ± 0.3
20 | D176P | 0.0199 ± 0.077
21 | D176L | -0.164 ± 0.061
22 | A397V | 0.799 ± 0.24
23 | A397K | 0.947 ± 0.67
24 | A43F | 1.23 ± 0.18

Row | Variant | STK11 functional score
25 | N412D | 1.53 ± 0.32
26 | M139R | 0.918 ± 0.37
27 | K178T | 0.951 ± 0.27
28 | R87V | 1.08 ± 0.43
29 | K44M | 0.633 ± 0.17
30 | K44T | 0.843 ± 0.28
31 | D343G | 1.41 ± 0.26
32 | T185F | 0.993 ± 0.24
33 | T185W | 0.387 ± 0.09
34 | D141M | 1.22 ± 0.14
35 | A420G | 1.52 ± 0.26
36 | I224L | 1.28 ± 0.19
37 | P314E | 1.54 ± 0.15
38 | T209M | 1.43 ± 0.33
39 | G408E | 1.54 ± 0.12
40 | G408K | 1.56 ± 0.24
41 | D327R | 1.61 ± 0.16
42 | D327S | 1.58 ± 0.26
43 | L286H | 0.00834 ± 0.071
44 | G394W | 1.29 ± 0.24
45 | G394Y | 1.38 ± 0.13
46 | S59D | 0.937 ± 0.59
47 | P321W | 1.6 ± 0.15
48 | H202F | 0.754 ± 0.15

Row | Variant | STK11 functional score
49 | A198G | 1.28 ± 0.11
50 | I172F | 0.904 ± 0.34
51 | N181W | -0.0742 ± 0.09
52 | Y60I | 1.23 ± 0.3
53 | Y49V | 0.956 ± 0.099
54 | V66C | 1.46 ± 0.32
55 | V66W | 0.62 ± 0.19
56 | P280V | 1.41 ± 0.096
57 | L17W | 1.56 ± 0.24
58 | M136S | 0.0685 ± 0.09
59 | E349F | 0.989 ± 0.64
60 | Q382T | 1.29 ± 0.33
61 | S216K | -0.0726 ± 0.095
62 | S422A | 1.5 ± 0.26
63 | F255A | 1.31 ± 0.29
64 | L85Y | 0.234 ± 0.093
65 | H379M | 1.52 ± 0.15
66 | K48Q | 1.41 ± 0.37
67 | K81L | 1.1 ± 0.13
68 | I35D | 1.67 ± 0.17
69 | D258F | 0.78 ± 0.28
70 | F264T | 0.96 ± 0.56
71 | N226P | 0.609 ± 0.13
72 | H174I | 0.662 ± 0.19

Row | Variant | STK11 functional score
73 | D194P | -0.348 ± 0.096
74 | Q159D | 1.12 ± 0.46
75 | F25I | 1.69 ± 0.52
76 | E293T | 1.3 ± 0.31
77 | V128Q | 1.22 ± 0.12
78 | V128C | 1.15 ± 0.1
79 | T32R | 1.36 ± 0.36
80 | T32A | 1.66 ± 0.13
81 | T186S | 1.1 ± 0.12
82 | E65M | 0.457 ± 0.078
83 | K262G | 1.35 ± 0.21
84 | A429K | 1.49 ± 0.27
85 | I303Y | -0.337 ± 0.56
86 | K416C | 1.14 ± 0.2
87 | S428C | 1.4 ± 0.17
88 | D359M | 1.6 ± 0.14
89 | D359P | 1.5 ± 0.3
90 | D359R | 1.52 ± 0.19
91 | V197S | 1.58 ± 0.4
92 | R74K | 1.11 ± 0.62
93 | L195F | 1.46 ± 0.21
94 | S240Q | 0.866 ± 0.15
95 | E375S | 1.39 ± 0.21
96 | A417V | 0.845 ± 0.15

Row | Variant | STK11 functional score
97 | A417S | 1.25 ± 0.36
98 | E199L | 0.971 ± 0.12
99 | N266G | 0.477 ± 0.1
100 | A93R | 1.6 ± 0.19
101 | G58W | 0.24 ± 0.092
102 | K235A | 1.65 ± 0.24
103 | S401P | 1.07 ± 0.67
104 | S401T | 0.884 ± 0.64
105 | T250H | 1.65 ± 0.24
106 | L54M | 1.1 ± 0.19
107 | G180W | 1.44 ± 0.15
108 | R301L | 1.6 ± 0.16
109 | S69K | 1.31 ± 0.084
110 | V368S | 1.1 ± 0.19
111 | V338T | 1.6 ± 0.14
112 | I267T | 1.11 ± 0.46
113 | Q305R | 1.14 ± 0.47
114 | K388M | 1.39 ± 0.2
115 | K388D | 1.31 ± 0.46
116 | Q220W | 1.46 ± 0.12
117 | L183S | 0.646 ± 0.4
118 | M11V | 1.55 ± 0.48
119 | Q7P | 0.819 ± 0.22
120 | E145L | 1.16 ± 0.17

Row | Variant | STK11 functional score
121 | E376A | 1.4 ± 0.35
122 | E376Q | 0.896 ± 0.46
123 | I360Y | 1.52 ± 0.2
124 | I360D | 0.487 ± 0.42
125 | F298R | 0.428 ± 0.25
126 | F231G | 1.17 ± 0.26
127 | H107S | 0.803 ± 0.17
128 | L400R | 1.37 ± 0.26
129 | C132A | 1.47 ± 0.32
130 | C132R | -0.197 ± 0.084
131 | Q137V | 1.27 ± 0.12
132 | R28W | 1.18 ± 0.092
133 | I99C | 1.57 ± 0.18
134 | I99R | 0.708 ± 0.16
135 | G346V | 0.838 ± 0.7
136 | G346A | 1.57 ± 0.28
137 | R211F | 1.61 ± 0.33
138 | R211S | 1.32 ± 0.15
139 | R384I | 1.06 ± 0.47
140 | Y362G | 1.15 ± 0.18
141 | L140N | 0.0882 ± 0.09
142 | L140Q | 1.54 ± 0.16
143 | L160Q | 0.000621 ± 0.18
144 | Q214M | 1.66 ± 0.2

Row | Variant | STK11 functional score
145 | S142D | 1.52 ± 0.39
146 | F219P | 0.116 ± 0.32
147 | E256I | 1.04 ± 0.77
148 | I177V | 1.06 ± 0.19
149 | M289C | 0.75 ± 0.1
150 | R425V | 0.938 ± 0.18
151 | R425H | 1.56 ± 0.17
152 | G135H | 1.63 ± 0.21
153 | R147Y | 1.47 ± 0.14
154 | A153P | -0.338 ± 0.074
155 | L341T | 1.29 ± 0.32
156 | K312R | 1.57 ± 0.17
157 | K41A | 1.25 ± 0.34
158 | K41V | 1.36 ± 0.19
159 | Y156S | 0.762 ± 0.14
160 | R409L | 1.02 ± 0.54
161 | P373S | 1.44 ± 0.32
162 | K78H | -0.114 ± 0.081
163 | G171L | 1.43 ± 0.39
164 | G279W | 1.06 ± 0.077
165 | K97W | 0.46 ± 0.082
166 | K97V | 0.998 ± 0.2
167 | E121I | 1.42 ± 0.52
